Patent US20260097113A1 (Pfizer, published 2026)

Assays:
[1] = target: RSV A + RSV B bivalent composition (RSV subtype A; RSV subtype B); assay: AM14 Fab titration by SEC; High-Slow 1 cycle; 3 M 25°C
[2] = target: RSV A + RSV B bivalent composition (RSV subtype A; RSV subtype B); assay: AM14 Fab titration by SEC; High-Slow 1 cycle; 8 M 25°C
[3] = target: RSV A + RSV B bivalent composition (RSV subtype A; RSV subtype B); assay: AM14 Fab titration by SEC; High-Slow 2 cycle; 1 M 2-8°C (second value)
[4] = target: RSV A + RSV B bivalent composition (RSV subtype A; RSV subtype B); assay: AM14 Fab titration by SEC; High-Slow 2 cycle; T0
[5] = target: T1, RSV F protein of subtype A comprising a polypeptide of SEQ ID NO: 1 and a polypeptide of SEQ ID NO: 2 (RSV subtype A, UniProt P11209 137-513; P03420 26-109); assay: AM14 ELISA; F18 (pH 7, 50 mM NaCl, 3% sucrose + 3% mannitol); 2 wk 5°C
T1 construct: Stabilized prefusion F trimer made of three F2-F1 heterodimers; Produced recombinantly in CHO cells; also called RSV A; RSVA
T1 chain 1: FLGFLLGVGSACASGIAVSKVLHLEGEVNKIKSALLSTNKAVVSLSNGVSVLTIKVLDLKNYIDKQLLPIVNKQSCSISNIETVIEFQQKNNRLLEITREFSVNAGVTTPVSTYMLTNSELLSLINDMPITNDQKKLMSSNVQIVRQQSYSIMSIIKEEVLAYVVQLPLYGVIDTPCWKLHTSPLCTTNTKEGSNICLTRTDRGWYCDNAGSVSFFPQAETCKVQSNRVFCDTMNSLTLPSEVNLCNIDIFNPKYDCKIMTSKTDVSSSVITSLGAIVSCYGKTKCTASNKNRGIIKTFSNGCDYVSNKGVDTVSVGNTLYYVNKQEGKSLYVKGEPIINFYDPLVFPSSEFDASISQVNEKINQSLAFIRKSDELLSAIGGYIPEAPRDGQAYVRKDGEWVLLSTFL
T1 chain 2: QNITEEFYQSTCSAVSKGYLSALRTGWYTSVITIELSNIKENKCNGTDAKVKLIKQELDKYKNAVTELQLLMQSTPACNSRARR

[6] = target: T1, RSV F protein of subtype A comprising a …; assay: AM14 ELISA; F5 (pH 6, 100 mM NaCl, 9.0% sucrose); T0
[7] = target: T1, RSV F protein of subtype A comprising a …; assay: AM14 ELISA; F12 (pH 8, 100 mM NaCl, 9.0% sucrose); 2 wk 25°C
[8] = target: T1, RSV F protein of subtype A comprising a …; assay: AM14 ELISA; F13 (pH 7, 100 mM NaCl, 4.5% sucrose); 1 wk 5°C
[9] = target: T1, RSV F protein of subtype A comprising a …; assay: AM14 ELISA; F15 (pH 6, 0 mM NaCl, 9% sucrose); 1 wk 5°C
[10] = target: T1, RSV F protein of subtype A comprising a …; assay: AM14 ELISA; F6 (pH 7, 0 mM NaCl, 4.5% sucrose); 1 wk 5°C
[11] = target: T1, RSV F protein of subtype A comprising a …; assay: AM14 ELISA; F13 (pH 7, 100 mM NaCl, 4.5% sucrose); 1 wk 25°C
[12] = target: T1, RSV F protein of subtype A comprising a …; assay: AM14 ELISA; F4 (pH 6, 50 mM NaCl, 4.5% sucrose); 2 wk 5°C
[13] = target: T1, RSV F protein of subtype A comprising a …; assay: AM14 ELISA; F19 (pH 7, 50 mM NaCl, 3% trehalose + 3% mannitol); 2 wk 5°C
[14] = target: T1, RSV F protein of subtype A comprising a …; assay: AM14 ELISA; F3 (pH 8, 0 mM NaCl, 9% sucrose); 1 wk 25°C
[15] = target: T1, RSV F protein of subtype A comprising a …; assay: AM14 ELISA; F1 (pH 8, 100 mM NaCl, 0% sucrose); 1 wk 25°C
[16] = target: T1, RSV F protein of subtype A comprising a …; assay: AM14 ELISA; F16 (pH 6, 0 mM NaCl, 0% sucrose); 1 wk 5°C

Molecule: AM14 Fab
- Prefusion Content (%) [1]: 53%
- Prefusion Content (%) [2]: 63%
- Prefusion Content (%) [3]: 65%
- Prefusion Content (%) [4]: 61%

B1: AM14 (trimeric prefusion specific antibody of the AM14 ELISA) (antibody, V domains shown)
VH: EVQLVESGGGVVQPGRSLRLSCAASGFSFSHYAMHWVRQAPGKGLEWVAVISYDGENTYYADSVKGRFSISRDNSKNTVSLQMNSLRPEDTALYYCARDRIVDDYYYYGMDVWGQGATVTVSS
VL: DIQMTQSPSSLSASVGDRVTITCQASQDIKKYLNWYHQKPGKVPELLMHDASNLETGVPSRFSGRGSGTDFTLTISSLQPEDIGTYYCQQYDNLPPLTFGGGTKVEIKR
notes: Antibody as used in the AM14 ELISA, detected with an HRP-labeled secondary antibody
- AM14 prefusion content (%), relative to standard [5]: 85%
- AM14 prefusion content (%), relative to standard [6]: 91%
- AM14 prefusion content (%), relative to standard [7]: 55%
- AM14 prefusion content (%), relative to standard [8]: 76%
- AM14 prefusion content (%), relative to standard [9]: 86%
- AM14 prefusion content (%), relative to standard [10]: 101%
- AM14 prefusion content (%), relative to standard [11]: 90%
- AM14 prefusion content (%), relative to standard [12]: 62%
- AM14 prefusion content (%), relative to standard [13]: 75%
- AM14 prefusion content (%), relative to standard [14]: 81%
- AM14 prefusion content (%), relative to standard [15]: 112%
- AM14 prefusion content (%), relative to standard [16]: 65%
